How the values were obtained:
[1] = target: Human V95E HSC70 (HSPA8) (human) (UniProt P11142)
[2] = target: Human WT HSC70 (HSPA8) (human) (UniProt P11142)

Chain of DnaJB4 (Q9UDY4 whole entry): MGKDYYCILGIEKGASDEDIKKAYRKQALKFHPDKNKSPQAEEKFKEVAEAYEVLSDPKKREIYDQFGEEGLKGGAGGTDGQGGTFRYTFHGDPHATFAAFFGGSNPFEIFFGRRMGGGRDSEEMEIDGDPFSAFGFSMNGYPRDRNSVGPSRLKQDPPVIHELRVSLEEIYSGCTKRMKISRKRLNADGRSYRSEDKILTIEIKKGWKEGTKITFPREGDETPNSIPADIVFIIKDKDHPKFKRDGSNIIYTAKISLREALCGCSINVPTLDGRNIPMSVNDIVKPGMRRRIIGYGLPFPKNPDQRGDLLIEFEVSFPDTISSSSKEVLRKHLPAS

Molecule | pseudo-Km of DnaJB4-stimulated ATPase activity (malachite green assay, 1 μM HSC70 titrated with DnaJB4, 37°C, Michaelis-Menten fit) [1] | pseudo-Km of DnaJB4-stimulated ATPase activity (malachite green assay, 1 μM HSC70 titrated with DnaJB4, 37°C, Michaelis-Menten fit) [2] | stimulation of ATPase activity (malachite green assay, normalised percent) as BAG1 is titrated into HSC70 (1 μM) and DnaJB4 (0.1 μM); value at the highest concentration tested [1]
DnaJB4 (from UniProt Q9UDY4 1-337) (natural protein) | 0.088 µM | 0.092 µM | –
BAG1 (natural protein) MAQRGGARRPRGDRERLGSRLRALRPGREPRQSEPPAQRGPPPSGRPPARSTASGHDRPTRGAAAGARRPRMKKKTRRRSTRSEELTRSEELTLSEEATWSEEATQSEEATQGEEMNRSQEVTRDEESTRSEEVTREEMAAAGLTVTVTHSNEKHDLHVTSQQGSSEPVVQDLAQVVEEVIGVPQSFQKLIFKGKSLKEMETPLSALGIQDGCRVMLIGKKNSPQEEVELKKLKHLEKSVEKIADQLEELNKELTGIQQGFLPKDLQAEALCKLDRRVKATIEQFMKILEEIDTLILPENFKDSRLKRKGLVKKVQAFLAECDTVEQNICQETERLQSTNFALAE | – | – | 25%
